The source of these data is PMC11391413.

Test [1] addresses full-length GRB2 (human) (UniProt P62993). The experiment in a line: NMR titration; 15N-labelled full-length GRB2 (about 200-270 uM) titrated with SOS1 PRM peptides (up to 1:12 S4, 1:36 S5 and S9, 1:24 S10), 2D 1H-15N HSQC, 25 °C, 20 mM sodium phosphate, 0.05% NaN3; global fit of residues with CSP over 0.03 ppm to an independent two-site model (values in parentheses: single-binding site model).

Test [2] concerns the target SOS1 S5 (Homo sapiens), Q07889. The experiment in a line: NMR.

As for PKLPPKTYKREH [SOS1 S10 PRM (…)], in test [1], the KD1 (NSH3 site, independent two-site model) was determined as 483 µM and the KD2 (CSH3 site, independent two-site model) came out at 579 µM.

In the case of DSPPAIPPRQPT [SOS1 S5 PRM (…)], in test [1], the KD1 (NSH3 site, independent two-site model) stood at 40.9 µM; the KD2 (CSH3 site, independent two-site model) was found to be 901 µM; the KD for NSH3, single-binding site model was found to be 44.9 µM.

B1: GRB2 NSH3, P62993 (protein)
chain: MEAIAKYDFKATADDELSFKRGDILKVLNEECDQNWYKAELNGKDGFIPKNYIEMKPH
For the molecule B1, the Kd (as a rule, the equilibrium constant for the complex coming apart) in test [2] was 40.9 µM.

Take IAGPPVPPRQST [SOS1 S9 PRM (…)]: in test [1], the KD1 (NSH3 site, independent two-site model) amounted to 28.4 µM; the KD2 (CSH3 site, independent two-site model) is 516 µM; the KD for NSH3, single-binding site model was 35 µM.

B2: GRB2 CSH3, P62993 (protein)
chain: QQPTYVQALFDFDPQEDGELGFRRGDFIHVMDNSDPNWWKGACHGQTGMFPRNYVTPVNR
The molecule B2 returned a Kd in test [2] of 901 µM.
